# Results from patent publication US20240034813A1 (Janssen / Centocor, published 2024).
# Columns and labels:
# [1] = molecular target: T1, recombinant cMet/HGFR with c-terminal His-tag, Cy5-labeled (UniProt P08581 25-932, limits assumed, Cy5 label (reacted with Cy5 Mono NHS Ester; sites not stated)); assay: competitive TR-FRET (Eu-amivantamab/Cy5-c-MET), EC50 ratio vs Reference Material; Ex. 12 drug product with rHuPH20, 6 months at 25 C
# T1 construct: Commercial protein; also called Cy5-c-MET; Cy5-labeled c-MET antigen; not shown: C-terminal His-tag
# Source text: (§1) In this procedure, varying concentrations of unlabeled bispecific EGFR-cMet antibody sample compete with donor fluorophore (Europium (Eu) chelate) labeled bispecific EGFR-cMet antibody for binding to an acceptor fluorophore (Cy5)-labeled c-MET antigen. Excitation of the donor fluorophore results in a transfer of energy to the bound acceptor fluorophore (FRET process). The resultant FRET is detected by emission of light at 665 nm using a microplate reader capable of measuring time-resolved fluorescence. Sample dose response curves are compared to the Reference Material (RM).
# (§2) c-MET Binding Materials and Methods. Certified commercial cMet, a recombinant cMet/HGFR with c-terminal His-tag is reacted with certified commercial Cy5 Mono NHS Ester to produce Cy5-labeled c-MET. Validated bispecific EGFR-cMet antibody is reacted with certified commercial Europium (Eu) chelate to produce Eu labeled bispecific EGFR-cMet antibody. […] Fluorescence is then measured by spectrophotometry at 665 nm, plotted against antibody concentration and analyzed by a four-parameter logistic model. The antibody concentration required to obtain half of the maximum fluorescence response (EC50) is determined for RM, assay control and samples. The potencies of assay control and samples are calculated based on the ratio of the sample (or control) and RM EC50 values and reported as a percentage activity relative to the RM.
# [2] = molecular target: T2, recombinant human EGFR/ErbB1/HER1 with C-terminal His tag, Cy5-labeled (human, UniProt P00533 25-645, Cy5 label (reacted with Cy5 Mono NHS Ester; sites not stated)); assay: competitive TR-FRET (Eu-amivantamab/Cy5-EGFR), EC50 ratio vs Reference Material; Ex. 2 Formulation 3 (acetate), 3 months at 40 C
# T2 construct: Commercial protein; also called Cy5-EGFR; Cy5-labeled EGFR antigen; not shown: C-terminal His tag
# Source text: (§3) In this procedure, varying concentrations of unlabeled bispecific EGFR-cMet antibody sample compete with donor fluorophore (Europium (Eu) chelate) labeled bispecific EGFR-cMet antibody for binding to an acceptor fluorophore (Cy5)-labeled EGFR antigen. Excitation of the donor fluorophore results in a transfer of energy to the bound acceptor fluorophore (FRET process). The resultant FRET is detected by emission of light at 665 nm using a microplate reader capable of measuring time-resolved fluorescence. Sample dose response curves are compared to the RM.
# as §2, with “EGFR” for “c-MET”, “EGFR,” for “cMet,”, “human EGFR/ErbB1/HER1” for “cMet/HGFR”, “C-terminal His tag” for “c-terminal His-tag”, “EGFR.” for “c-MET.”, “Eu-labeled” for “Eu labeled”
# [3] = molecular target: T1, recombinant cMet/HGFR with c-terminal …; assay: competitive TR-FRET (Eu-amivantamab/Cy5-c-MET), EC50 ratio vs Reference Material; Ex. 11 drug product, 5 months at 5 C
# Source text: as §1, §2
# [4] = molecular target: T2, recombinant human EGFR/ErbB1/HER1 with …; assay: competitive TR-FRET (Eu-amivantamab/Cy5-EGFR), EC50 ratio vs Reference Material; Ex. 11 drug product, 12 months at 5 C
# Source text: as §3
# as §2, with “EGFR” for “c-MET”, “EGFR,” for “cMet,”, “human EGFR/ErbB1/HER1” for “cMet/HGFR”, “C-terminal His tag” for “c-terminal His-tag”, “EGFR.” for “c-MET.”, “Eu-labeled” for “Eu labeled”
# [5] = molecular target: T1, recombinant cMet/HGFR with c-terminal …; assay: competitive TR-FRET (Eu-amivantamab/Cy5-c-MET), EC50 ratio vs Reference Material; Ex. 12 drug product with rHuPH20, 6 months at 5 C
# Source text: as §1, §2
# [6] = molecular target: T1, recombinant cMet/HGFR with c-terminal …; assay: competitive TR-FRET (Eu-amivantamab/Cy5-c-MET), EC50 ratio vs Reference Material; Ex. 2 Formulation 3 (acetate), T0, 5 C table
# Source text: as §1, §2
# [7] = molecular target: T1, recombinant cMet/HGFR with c-terminal …; assay: competitive TR-FRET (Eu-amivantamab/Cy5-c-MET), EC50 ratio vs Reference Material; Ex. 2 Formulation 3 (acetate), T0, 40 C table
# Source text: as §1, §2
# [8] = molecular target: T1, recombinant cMet/HGFR with c-terminal …; assay: competitive TR-FRET (Eu-amivantamab/Cy5-c-MET), EC50 ratio vs Reference Material; Ex. 12 drug product with rHuPH20, 12 months at 5 C
# Source text: as §1, §2
# [9] = molecular target: T1, recombinant cMet/HGFR with c-terminal …; assay: competitive TR-FRET (Eu-amivantamab/Cy5-c-MET), EC50 ratio vs Reference Material; Ex. 11 drug product, 1 month at 40 C
# Source text: as §1, §2
binder,measurement,setting,value
"amivantamab (bispecific antibody, human IgG1, kappa, The samples tested were high concentration (160 mg/mL) formulations, fresh or stored or stressed; also called JNJ-61186372; bispecific EGFR-cMet antibody) heavy 1: not shown light 1: not shown heavy 2: not shown light 2: DIQMTQSPSSVSASVGDRVTITCRASQGISNWLAWFQHKPGKAPKLLIYAASSLLSGVPSRFSGSGSGTDFTLTISSLQPEDFATYYCQQANSFPITFGQGTRLEIKRTVAAPSVFIFPPSDEQLKSGTASVVCLLNNFYPREAKVQWKVDNALQSGNSQESVTEQDSKDSTYSLSSTLTLSKADYEKHKVYACEVTHQGLSSPVTKSFNRGEC",cMET Binding activity relative to Reference Material (%),[1],103%
same,EGFR Binding % activity relative to RM,[2],46%
same,cMET Binding activity relative to Reference Material (%),[3],108%
same,EGFR Binding activity relative to Reference Material (%),[4],86%
same,cMET Binding activity relative to Reference Material (%),[5],102%
same,cMET Binding % activity relative to RM,[6],94%
same,cMET Binding % activity relative to RM,[7],94%
same,cMET Binding activity relative to Reference Material (%),[8],97%
same,cMET Binding activity relative to Reference Material (%),[9],84%
